Positions count from the first letter of the chain named. One block for each binder: values may come before it.
How the values were obtained:
[1] = molecular target: T1, human activated protein C (human, UniProt P04070 43-197; P04070 212-461); assay: ELISA, plate coated with haPC 1 ug/mL, anti-hIgG-Fc-HRP
T1 construct: In the plasma assays aPC is generated in human plasma with Protac; also called aPC; haPC
Method: (§1) The binding abilities of the anti-aPC monoclonal antibodies to haPC/hPC were assayed by Elisa. […] 1. ELISA plates were coated with haPC/hPC (1 ug/mL in PBS), 100 μL/well, at 4° C. overnight. […] 2. The plates were washed 3 times with PBST (0.1% Tween 20), 200 μL/well. […] 3. The plates were blocked with 2% BSA (PBS solution), 200 μL/well, at room temperature for 1 hour. […] 4. The plates were washed 3 times with PBST (0.1% Tween 20), 200 μL/well. […] 5. The plates were incubated with anti-aPC monoclonal antibody as primary antibody (diluted from 10 μg/mL in 2% BSA), 100 μL/well, at room temperature for 1 hour. […] 6. The plates were washed 3 times with PBST (0.1% Tween 20), 200 μL/well. [0200] 7. The plates were incubated with anti-hIgG-Fc antibody-HRP (diluted 5000-fold in 2% BSA buffer) at room temperature for 1 hour. [0201] 8. The plates were washed 6 times with PBST (0.1% Tween 20), 200 μL/well. [0202] 9. The plates were incubated with a TMB substrate (prepared from solutions A and B at 1:1 (v/v)), 100 μL/well, away from light for 10 minutes. […] 10. The reaction was quenched with HCl (1 M), 100 μL/well, and OD450 was read.

[2] = molecular target: T1, human activated protein C; assay: Octet BLI, antibody on Protein A sensor, huAPC 3.13-50 nM, 1:1 model, 25 C, pH 7.4
Method: Assay method: Octet analysis was carried out at 25° C. using a Protein A Octet biosensor in 1× Kinetics buffer. During the kinetics assay, the baseline step assay was run in 1× Kinetics buffer for 120 seconds, and then run for 240 seconds after the antibody was loaded to the biosensor. Next, the baseline 2 step assay was run in 1× Kinetics buffer for 120 seconds. […] The 1× Kinetics buffer was used as a blank control to show the natural dissociation of the antibody in the buffer. 10 mM glycine at pH 1.5 was used for the regeneration step. Octet data analysis software was used to calculate binding kinetics, and a 1:1 binding model was used for curve fitting.
The affinities of the mutant antibodies were assayed at pH 7.4.

human protein C [3] = molecular target: T2, human protein C (human, UniProt P04070 43-461); assay: ELISA, plate coated with hPC 1 ug/mL, anti-hIgG-Fc-HRP
T2 construct: Zymogen form, coated on ELISA plates; also called hPC; PC
Method: as §1

[4] = molecular target: T1, human activated protein C; assay: cell-based or functional assay
human protein C [5] = molecular target: T2, human protein C; assay: ELISA on plate-coated HPC, OD450
Method: as §1

[6] = molecular target: human activated protein C (human) (UniProt P04070); assay: cell-based or functional assay

B3: HAPC-14-10 (antibody, V domains shown)
VH: EVQLVESGGGLVQPGGSLRLSCAASGFTFSNYYLNWVRQAPGKGLEWVGDIRLKKNNYEKHYAESVKGRFTISRDDSKSITYLQMNSLRAEDTAVYYCAREGDTFDYWGQGTTVTVSS
VL: DIQLTQSPSSLSASVGDRVTITCRASESVDSFGATFMHWYQQKPGKAPKLLIYLASRLGSGVPSRFSGSGSGTDFTLTISSLQPEDFATYYCVQNNEDPYTFGQGTKLEIK
notes: Whole IgG, backbone hIgG1; also called HPAC 14-10
- EC50 [1]: 0.28 nM
- Span [1]: 0.745
- Kd [2]: 19 nM
- koff [2]: 0.00428 s⁻¹
- kon [2]: 225000 M⁻¹ s⁻¹
- Span (human protein C [3]): ~0.00145
- Mean clotting time (s), FIX-deficient plasma, APC-antibody concentration 0.05 ug/ml [4]: 733 s
- Mean clotting time (s), FIX-deficient plasma, APC-antibody concentration 0.1 ug/ml [4]: 596 s
- Mean clotting time (s), FIX-deficient plasma, APC-antibody concentration 0.5 ug/ml [4]: 331 s
- Mean clotting time (s), FIX-deficient plasma, APC-antibody concentration 1 ug/ml [4]: 158 s
- Mean clotting time (s), FVIII-deficient plasma, APC-antibody concentration 0.05 ug/ml [4]: 415 s
- Mean clotting time (s), FVIII-deficient plasma, APC-antibody concentration 0.1 ug/ml [4]: 309 s
- Mean clotting time (s), FVIII-deficient plasma, APC-antibody concentration 0.5 ug/ml [4]: 254 s
- binding result (human protein C [5]): no binding (tested: 10^2 nM)

B5: HAPC1573 (antibody, from another filing, V domains shown)
VH: EVKLEESGGGLVQPGGSMKLSCVASGFTFSNYYLNWVRQSPEKGLEWVADIRLKSNNYEKHYAESVKGRFTISRDDSKSSVYLQMNNLRAEDTGIYYCIREGDYFDYWGQGTTLTVSS
VL: NIVLTQSPASLAVSLGQRATISCRASESVDSFGATFMHWYQQKPGQPPKLLIYLASNLESGVPARFSGSGSRTDFTLTIDPVEADDAATYYCQQNNEDPYTFGGGTKLEIKR
- Mean clotting time (s), FIX-deficient plasma, APC-antibody concentration 0.5 ug/ml [6]: 584 s
- Mean clotting time (s), FIX-deficient plasma, APC-antibody concentration 1 ug/ml [6]: 567 s
- Mean clotting time (s), FIX-deficient plasma, APC-antibody concentration 5 ug/ml [6]: 404 s
- Mean clotting time (s), FVIII-deficient plasma, APC-antibody concentration 0.5 ug/ml [6]: 600 s
- Mean clotting time (s), FVIII-deficient plasma, APC-antibody concentration 1 ug/ml [6]: 629 s
- Mean clotting time (s), FVIII-deficient plasma, APC-antibody concentration 5 ug/ml [6]: 389 s
- antibody concentration needed to inhibit the anticoagulant activity of aPC, Protac-induced APTT in factor-deficient human plasma [6]: > 100 µg/mL

Further binders by falling EC50 [1], results first:

- EC50 [1]: 0.0924 nM
- Span [1]: 1.63
- Kd [2]: 2.83 nM
- koff [2]: 0.000911 s⁻¹
- kon [2]: 322000 M⁻¹ s⁻¹
- Span (human protein C [3]): ~0.0475
- Mean clotting time (s), FIX-deficient plasma, APC-antibody concentration 0.5 ug/ml [4]: 197 s
- Mean clotting time (s), FIX-deficient plasma, APC-antibody concentration 1 ug/ml [4]: 188 s
- Mean clotting time (s), FIX-deficient plasma, APC-antibody concentration 5 ug/ml [4]: 166 s
- Mean clotting time (s), FVIII-deficient plasma, APC-antibody concentration 0.5 ug/ml [4]: 224 s
- Mean clotting time (s), FVIII-deficient plasma, APC-antibody concentration 1 ug/ml [4]: 200 s
- Mean clotting time (s), FVIII-deficient plasma, APC-antibody concentration 5 ug/ml [4]: 171 s
- binding result (human protein C [5]): no binding (tested: 10^2 nM)
B2: HAPC-14-5 (antibody, V domains shown)
VH: B3 VH with N31F, T104Y
VL: B3 VL with R57W
notes: Whole IgG, backbone hIgG1; also called HPAC 14-5

- EC50 [1]: 0.0761 nM
- Span [1]: 1.07
- Kd [2]: 9.69 nM
- koff [2]: 0.00238 s⁻¹
- kon [2]: 245000 M⁻¹ s⁻¹
- Span (human protein C [3]): 0.012
- Mean clotting time (s), FIX-deficient plasma, APC-antibody concentration 0.05 ug/ml [4]: 670 s
- Mean clotting time (s), FIX-deficient plasma, APC-antibody concentration 0.1 ug/ml [4]: 611 s
- Mean clotting time (s), FIX-deficient plasma, APC-antibody concentration 0.5 ug/ml [4]: 170 s
- Mean clotting time (s), FVIII-deficient plasma, APC-antibody concentration 0.05 ug/ml [4]: 262 s
- Mean clotting time (s), FVIII-deficient plasma, APC-antibody concentration 0.1 ug/ml [4]: 217 s
- Mean clotting time (s), FVIII-deficient plasma, APC-antibody concentration 0.5 ug/ml [4]: 182 s
- binding result (human protein C [5]): no binding (tested: 10^2 nM)
B1: HAPC-14-9 (antibody, V domains shown)
VH: B3 VH with N31F
VL: B3 VL with V93Q
notes: Whole IgG, backbone hIgG1; also called HPAC 14-9

- EC50 [1]: 0.0605 nM
- Span [1]: 1.52
- Kd [2]: 4.06 nM
- koff [2]: 0.00126 s⁻¹
- kon [2]: 310000 M⁻¹ s⁻¹
- Span (human protein C [3]): 0.157
- Mean clotting time (s), FIX-deficient plasma, APC-antibody concentration 0.5 ug/ml [4]: 220 s
- Mean clotting time (s), FIX-deficient plasma, APC-antibody concentration 1 ug/ml [4]: 194 s
- Mean clotting time (s), FIX-deficient plasma, APC-antibody concentration 5 ug/ml [4]: 176 s
- Mean clotting time (s), FVIII-deficient plasma, APC-antibody concentration 0.5 ug/ml [4]: 221 s
- Mean clotting time (s), FVIII-deficient plasma, APC-antibody concentration 1 ug/ml [4]: 184 s
- Mean clotting time (s), FVIII-deficient plasma, APC-antibody concentration 5 ug/ml [4]: 158 s
- binding result (human protein C [5]): no binding (tested: 10^2 nM)
B4: HAPC-14-4 (antibody, V domains shown)
VH: B3 VH with N31F, K55S, T104Y
VL: B3 VL
notes: Whole IgG, backbone hIgG1; also called HPAC 14-4

Source: patent US20250277057A1 (OKLAHOMA MEDICAL RESEARCH FOUNDATION, published 2025)
